Legend:
Assay in all cases: SPR, mAb captured, C2 mutant analyte;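 also: Anti-C2 mAbs captured on goat anti-human IgG Biacore CM5 chips, alanine or serine C2 surface mutants flowed over at 37 °C, double-referenced sensorgrams fitted to a 1:1 binding model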
human C2 N325A = target: T1, human C2 N325A (human, UniProt P06681 21-752)
T1 sequence: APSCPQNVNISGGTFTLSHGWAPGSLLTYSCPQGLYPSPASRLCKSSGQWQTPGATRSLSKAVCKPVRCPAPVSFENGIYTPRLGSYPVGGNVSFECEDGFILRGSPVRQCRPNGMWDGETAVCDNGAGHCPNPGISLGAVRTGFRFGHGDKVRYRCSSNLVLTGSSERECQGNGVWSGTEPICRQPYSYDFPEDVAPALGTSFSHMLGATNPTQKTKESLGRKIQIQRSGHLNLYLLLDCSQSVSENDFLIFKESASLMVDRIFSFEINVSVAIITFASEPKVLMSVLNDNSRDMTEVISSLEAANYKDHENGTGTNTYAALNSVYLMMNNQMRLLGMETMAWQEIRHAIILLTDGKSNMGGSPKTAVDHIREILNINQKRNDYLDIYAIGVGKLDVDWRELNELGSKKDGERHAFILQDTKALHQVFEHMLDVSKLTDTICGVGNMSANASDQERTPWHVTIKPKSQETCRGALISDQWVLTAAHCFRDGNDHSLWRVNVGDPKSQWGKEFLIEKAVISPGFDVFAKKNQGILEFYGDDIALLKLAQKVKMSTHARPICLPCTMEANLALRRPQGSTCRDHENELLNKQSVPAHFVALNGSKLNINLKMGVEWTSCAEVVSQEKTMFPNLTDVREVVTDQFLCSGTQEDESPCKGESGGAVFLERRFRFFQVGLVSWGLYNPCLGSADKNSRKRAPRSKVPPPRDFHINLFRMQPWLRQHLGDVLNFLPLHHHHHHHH

human C2 G414A = target: T2, human C2 G414A (human, UniProt P06681 21-752)
T2 sequence: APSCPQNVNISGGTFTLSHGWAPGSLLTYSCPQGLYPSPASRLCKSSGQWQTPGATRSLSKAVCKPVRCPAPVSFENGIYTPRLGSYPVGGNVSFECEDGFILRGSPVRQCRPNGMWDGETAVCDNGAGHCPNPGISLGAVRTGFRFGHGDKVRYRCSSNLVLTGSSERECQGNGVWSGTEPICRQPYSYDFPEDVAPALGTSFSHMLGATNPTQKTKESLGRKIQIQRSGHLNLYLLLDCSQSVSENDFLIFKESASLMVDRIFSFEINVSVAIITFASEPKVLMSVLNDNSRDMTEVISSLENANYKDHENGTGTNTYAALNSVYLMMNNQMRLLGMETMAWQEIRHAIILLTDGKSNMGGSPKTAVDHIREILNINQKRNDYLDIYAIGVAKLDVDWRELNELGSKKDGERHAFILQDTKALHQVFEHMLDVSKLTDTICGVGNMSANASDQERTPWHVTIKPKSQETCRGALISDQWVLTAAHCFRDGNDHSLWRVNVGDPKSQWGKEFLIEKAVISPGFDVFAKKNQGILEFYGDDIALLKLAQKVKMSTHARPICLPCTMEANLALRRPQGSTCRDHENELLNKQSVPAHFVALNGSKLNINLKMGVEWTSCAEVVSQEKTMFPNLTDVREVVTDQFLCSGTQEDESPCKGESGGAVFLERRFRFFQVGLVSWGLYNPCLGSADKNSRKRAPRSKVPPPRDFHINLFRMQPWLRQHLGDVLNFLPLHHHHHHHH

human C2 D417A = target: T3, human C2 D417A (human, UniProt P06681 21-752)
T3 sequence: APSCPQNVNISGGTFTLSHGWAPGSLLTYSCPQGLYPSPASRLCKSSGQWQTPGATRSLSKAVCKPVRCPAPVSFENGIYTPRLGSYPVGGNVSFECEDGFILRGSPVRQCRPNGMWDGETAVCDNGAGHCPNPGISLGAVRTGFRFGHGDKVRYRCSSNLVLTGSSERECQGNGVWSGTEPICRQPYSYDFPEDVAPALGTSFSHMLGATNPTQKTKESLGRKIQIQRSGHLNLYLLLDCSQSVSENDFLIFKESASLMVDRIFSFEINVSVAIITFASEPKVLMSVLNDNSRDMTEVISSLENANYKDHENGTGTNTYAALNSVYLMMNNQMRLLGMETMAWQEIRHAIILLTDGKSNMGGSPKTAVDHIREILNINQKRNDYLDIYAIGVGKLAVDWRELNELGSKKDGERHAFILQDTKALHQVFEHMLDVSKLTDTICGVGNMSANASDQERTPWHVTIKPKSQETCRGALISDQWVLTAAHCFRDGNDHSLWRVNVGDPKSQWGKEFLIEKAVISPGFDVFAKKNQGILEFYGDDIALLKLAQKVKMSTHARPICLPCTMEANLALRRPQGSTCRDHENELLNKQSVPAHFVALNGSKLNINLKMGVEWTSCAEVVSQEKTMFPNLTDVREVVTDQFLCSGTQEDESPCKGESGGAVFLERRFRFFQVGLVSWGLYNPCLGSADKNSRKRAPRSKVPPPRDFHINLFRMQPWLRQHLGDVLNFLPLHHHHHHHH

human C2 V455A = target: T4, human C2 V455A (human, UniProt P06681 21-752)
T4 sequence: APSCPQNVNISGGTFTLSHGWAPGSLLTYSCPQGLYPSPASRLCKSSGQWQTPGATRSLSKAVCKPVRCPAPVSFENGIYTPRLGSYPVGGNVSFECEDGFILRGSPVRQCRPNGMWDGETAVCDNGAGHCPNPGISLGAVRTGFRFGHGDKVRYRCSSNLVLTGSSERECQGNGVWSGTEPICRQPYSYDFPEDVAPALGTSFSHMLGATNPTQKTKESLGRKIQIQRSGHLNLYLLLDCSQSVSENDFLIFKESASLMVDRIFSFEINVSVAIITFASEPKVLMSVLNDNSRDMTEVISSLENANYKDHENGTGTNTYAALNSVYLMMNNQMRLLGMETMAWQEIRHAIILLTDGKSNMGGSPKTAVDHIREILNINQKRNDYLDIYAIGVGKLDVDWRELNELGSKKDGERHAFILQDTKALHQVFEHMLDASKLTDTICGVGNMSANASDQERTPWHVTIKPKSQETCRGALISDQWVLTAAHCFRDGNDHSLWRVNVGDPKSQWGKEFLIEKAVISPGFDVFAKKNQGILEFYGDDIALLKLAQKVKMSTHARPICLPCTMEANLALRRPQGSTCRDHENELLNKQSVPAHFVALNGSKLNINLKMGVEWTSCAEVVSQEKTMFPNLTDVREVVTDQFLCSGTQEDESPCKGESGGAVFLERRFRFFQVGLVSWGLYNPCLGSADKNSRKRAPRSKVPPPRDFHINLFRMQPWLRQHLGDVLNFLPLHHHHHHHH

Kd (human C2 N325A): 328 nM | Kd (human C2 G414A): 14.8 nM | Kd (human C2 D417A): 56.4 nM | Kd (human C2 V455A): 9.8 nM
B1: RF16-214 (antibody, V domains shown)
VH: EVQLLESGGGLVQPGGSLRLSCAASGFTFSWYQMMWVRQAPGKGLEWVSRIYPSGGGTAYADSVKGRFTISRDNSKNTLYLQMNSLRAEDTAVYYCARDAGYGDNWGQGTLVTVSS
VL: QSALTQPPSVSVSPGQTASITCSGDKLGEKYASWYQQKAGQSPVMVIYQDRKRPSGIPERFSGSNSGNTATLTISGTQAMDEADYYCQAWDTRAVVFGGGTKLTVLG

Source: patent US20220332804A1 (CSL INNOVATION, published 2022)
